From paper PMC3319578, “Talin Contains A C-Terminal Calpain2 Cleavage Site Important In Focal Adhesion Dynamics” (PLoS ONE, 2012)

Biological target: the molecule itself
Assay: SEC; analytical gel filtration, Superdex-75 (10/300), room temperature, 20 mM Tris pH 8.0, 150 mM NaCl, 2 mM DTT, 0.8 ml/min

Row | Protein | stoichiometry N
1 | talin1 2300–2541 polypeptide (C-terminal actin-binding site and dimerisation domain), wild type (domain or fragment, mouse, UniProt P26039 2300-2541, looked up, Cloned into pET-151/D-TOPO; dimer by gel filtration; also called talin 2300–2541; ABS-DD; source: E. coli, purified (Ni-NTA, TEV cleavage, Resource-Q)) DPTVIAENELLGAAAAIEAAAKKLEQLKPRAKPKEADESLNFEEQILEAAKSIAAATSALVKAASAAQRELVAQGKVGAIPANALDDGQWSQGLISAARMVAAATNNLCEAANAAVQGHASQEKLISSAKQVAASTAQLLVACKVKADQDSEAMKRLQAAGNAVKRASDNLVKAAQKAAAFEDQENETVVVKEKMVGGIAQIIAAQEEMLRKERELEEARKKLAQIRQQQYKFLPSELRDEH | 2
2 | talin1 2300–2541 E2492G mutant (domain or fragment, mouse, UniProt P26039 2300-2541, looked up, talin1, mouse, residues 2300–2541 with E2492G; Dimer by gel filtration; also called E2494G (as printed once in the text); source: E. coli, purified (Ni-NTA, TEV cleavage, Resource-Q)) DPTVIAENELLGAAAAIEAAAKKLEQLKPRAKPKEADESLNFEEQILEAAKSIAAATSALVKAASAAQRELVAQGKVGAIPANALDDGQWSQGLISAARMVAAATNNLCEAANAAVQGHASQEKLISSAKQVAASTAQLLVACKVKADQDSEAMKRLQAAGNAVKRASDNLVKAAQKAAAFEDQENETVVVKGKMVGGIAQIIAAQEEMLRKERELEEARKKLAQIRQQQYKFLPSELRDEH | 2
